Tests used:
[1] = target: HLA-A*25:01; assay: IEDB peptide-MHC binding, purified MHC/competitive/fluorescence; ≥ and ≤ were set here for values at or beyond the usual limits of such assays; details: source organism: Monodelphis domestica
[2] = target: HLA-B*53:01; assay: as above; details: source organism: Monodelphis domestica
[3] = target: HLA-A*02:01; assay: as above; details: source organism: Monodelphis domestica
[4] = target: HLA-B*35:01; assay: as above; details: source organism: Monodelphis domestica
[5] = target: HLA-B*18:01; assay: as above; details: source organism: Monodelphis domestica
[6] = target: HLA-A*03:01; assay: as above; details: source organism: Monodelphis domestica
[7] = target: HLA-B*08:01; assay: as above; details: source organism: Monodelphis domestica
[8] = target: HLA-B*44:03; assay: as above; details: source organism: Monodelphis domestica
[9] = target: HLA-A*31:01; assay: as above; details: source organism: Monodelphis domestica
[10] = target: HLA-B*14:02; assay: as above; details: source organism: Monodelphis domestica
[11] = target: HLA-A*11:01; assay: as above; details: source organism: Monodelphis domestica
[12] = target: HLA-B*58:01; assay: as above; details: source organism: Monodelphis domestica
[13] = target: HLA-B*51:01; assay: as above; details: source organism: Monodelphis domestica
[14] = target: HLA-A*24:02; assay: as above; details: source organism: Monodelphis domestica
[15] = target: HLA-A*29:02; assay: as above; details: source organism: Monodelphis domestica
[16] = target: HLA-A*01:01; assay: as above; details: source organism: Monodelphis domestica
[17] = target: HLA-B*40:02; assay: as above
[18] = target: HLA-A*68:02; assay: as above; details: source organism: Monodelphis domestica
[19] = target: HLA-B*37:01; assay: as above; details: source organism: Monodelphis domestica
[20] = target: HLA-B*07:02; assay: as above; details: source organism: Monodelphis domestica
[21] = target: HLA-B*40:01; assay: IEDB peptide-MHC binding, purified MHC/competitive/fluorescence; filed as Kd, often an IC50 or EC50 that approximates it; ≥ and ≤ were set here for values at or beyond the usual limits of such assays; details: source organism: Bacillus cereus G9241
[22] = target: HLA-A*25:01; assay: as above; details: source organism: Giardia lamblia ATCC 50803
[23] = target: HLA-A*02:01; assay: as above; details: source organism: Giardia lamblia ATCC 50803
[24] = target: HLA-A*26:01; assay: as above; details: source organism: Giardia lamblia ATCC 50803
[25] = target: HLA-A*03:01; assay: as above; details: source organism: Giardia lamblia ATCC 50803
[26] = target: HLA-B*46:01; assay: as above; details: source organism: Giardia lamblia ATCC 50803
[27] = target: HLA-B*27:03; assay: as above; details: source organism: Giardia lamblia ATCC 50803
[28] = target: HLA-A*02:03; assay: as above; details: source organism: Giardia lamblia ATCC 50803
[29] = target: HLA-A*02:16; assay: as above; details: source organism: Giardia lamblia ATCC 50803
[30] = target: HLA-A*29:02; assay: as above; details: source organism: Giardia lamblia ATCC 50803
[31] = target: HLA-A*02:19; assay: as above; details: source organism: Giardia lamblia ATCC 50803
[32] = target: HLA-A*02:12; assay: as above; details: source organism: Giardia lamblia ATCC 50803
[33] = target: HLA-A*68:02; assay: as above; details: source organism: Giardia lamblia ATCC 50803
[34] = target: HLA-A*69:01; assay: as above; details: source organism: Giardia lamblia ATCC 50803
[35] = target: HLA-B*39:01; assay: as above
[36] = target: HLA-A*02:01; assay: IEDB peptide-MHC binding, purified MHC/direct/fluorescence; filed as Kd, often an IC50 or EC50 that approximates it; ≥ and ≤ were set here for values at or beyond the usual limits of such assays; details: source organism: Vibrio parahaemolyticus AQ3810
[37] = target: HLA-B*18:01; assay: as above; details: source organism: Vibrio parahaemolyticus AQ3810
[38] = target: HLA-A*26:01; assay: as above; details: source organism: Vibrio parahaemolyticus AQ3810
[39] = target: HLA-A*03:01; assay: as above; details: source organism: Vibrio parahaemolyticus AQ3810
[40] = target: HLA-B*46:01; assay: as above; details: source organism: Vibrio parahaemolyticus AQ3810
[41] = target: HLA-B*27:03; assay: as above; details: source organism: Vibrio parahaemolyticus AQ3810
[42] = target: HLA-A*02:16; assay: as above; details: source organism: Vibrio parahaemolyticus AQ3810
[43] = target: HLA-B*57:01; assay: as above; details: source organism: Vibrio parahaemolyticus AQ3810
[44] = target: HLA-B*15:01; assay: as above; details: source organism: Vibrio parahaemolyticus AQ3810
[45] = target: HLA-B*51:01; assay: as above; details: source organism: Vibrio parahaemolyticus AQ3810
[46] = target: HLA-A*29:02; assay: as above; details: source organism: Vibrio parahaemolyticus AQ3810
[47] = target: HLA-A*02:12; assay: as above; details: source organism: Vibrio parahaemolyticus AQ3810
[48] = target: HLA-A*69:01; assay: as above; details: source organism: Vibrio parahaemolyticus AQ3810
[49] = target: HLA-B*15:17; assay: as above; details: source organism: Vibrio parahaemolyticus AQ3810
[50] = target: HLA-A*02:06; assay: as above; details: source organism: Vibrio parahaemolyticus AQ3810
[51] = target: HLA-B*58:01; assay: IEDB peptide-MHC binding, purified MHC/competitive/fluorescence; filed as Kd, often an IC50 or EC50 that approximates it; ≥ and ≤ were set here for values at or beyond the usual limits of such assays; details: source organism: Escherichia coli F11
[52] = target: HLA-A*02:05; assay: IEDB peptide-MHC binding, purified MHC/competitive/radioactivity; filed as Kd, often an IC50 or EC50 that approximates it; ≥ and ≤ were set here for values at or beyond the usual limits of such assays; details: source organism: Homo sapiens
[53] = target: HLA-B*44:02; assay: IEDB peptide-MHC binding, purified MHC/competitive/fluorescence; ≥ and ≤ were set here for values at or beyond the usual limits of such assays; details: source organism: Homo sapiens
[54] = target: HLA-B*27:05; assay: IEDB peptide-MHC binding, purified MHC/competitive/fluorescence; filed as Kd, often an IC50 or EC50 that approximates it; ≥ and ≤ were set here for values at or beyond the usual limits of such assays; details: source organism: Shigella boydii CDC 3083-94

FLLPILSQIYT
IC50 [1]: ≥ 20 µM
IC50 [2]: ≥ 20 µM
IC50 [3]: 0.0053 µM
IC50 [4]: 0.206 µM
IC50 [5]: ≥ 20 µM
IC50 [6]: ≥ 20 µM
IC50 [7]: ≥ 20 µM
IC50 [8]: ≥ 20 µM
IC50 [9]: ≥ 20 µM
IC50 [10]: ≥ 20 µM
IC50 [11]: ≥ 20 µM
IC50 [12]: ≥ 20 µM
IC50 [13]: ≥ 20 µM
IC50 [14]: ≥ 20 µM
IC50 [15]: 0.206 µM
IC50 [16]: ≥ 20 µM
IC50 ([17]; source organism: Monodelphis domestica): ≥ 20 µM
IC50 [18]: ≥ 20 µM
IC50 [19]: ≥ 20 µM
IC50 [20]: ≥ 20 µM

GEIVLCHVL
Kd [21]: 0.005 µM

KVSWRWMVY
Kd [22]: ≥ 20 µM
Kd [23]: ≥ 20 µM
Kd [24]: ≥ 20 µM
Kd [25]: 0.0043 µM
Kd [26]: ≥ 20 µM
Kd [27]: ≥ 20 µM
Kd [28]: ≥ 20 µM
Kd [29]: ≥ 20 µM
Kd [30]: 0.148 µM
Kd [31]: ≥ 20 µM
Kd [32]: ≥ 20 µM
Kd [33]: ≥ 20 µM
Kd [34]: ≥ 20 µM
Kd ([35]; source organism: Giardia lamblia ATCC 50803): ≥ 20 µM

MQGKDFNHL
Kd [36]: ≥ 20 µM
Kd [37]: ≥ 20 µM
Kd [38]: ≥ 20 µM
Kd [39]: ≥ 20 µM
Kd [40]: ≥ 20 µM
Kd [41]: ≥ 20 µM
Kd [42]: ≥ 20 µM
Kd [43]: ≥ 20 µM
Kd [44]: ≥ 20 µM
Kd [45]: ≥ 20 µM
Kd [46]: ≥ 20 µM
Kd [47]: 1.21 µM
Kd [48]: ≥ 20 µM
Kd [49]: ≥ 20 µM
Kd [50]: 0.009 µM

QHFGLIPQW
Kd [51]: 0.143 µM

RLFPGLAIKI
Kd [52]: 0.09 µM

SDFQVHFL
IC50 ([17]; source organism: Homo sapiens): 0.0124 µM
IC50 [53]: ≥ 20 µM

WRLVYASAV
Kd [54]: 0.0753 µM
Kd ([35]; source organism: Shigella boydii CDC 3083-94): 0.0118 µM

Source: the Immune Epitope Database (IEDB)
